According to US20200407447A1 (CEINGEBIOTECNOLOGIE AVANZATE FRANCO SALVATORE SCARL, published 2020):

Tests used:
[1] = molecular target: T1, human LAG-3 on activated hPBMCs (human, UniProt P18627 23-525); test: cell ELISA on activated hPBMCs (apparent Kd, legend paragraph 26)
T1 construct: whole, on cells; also called cognate receptor expressed on hPBMCs
T1 sequence (looked up): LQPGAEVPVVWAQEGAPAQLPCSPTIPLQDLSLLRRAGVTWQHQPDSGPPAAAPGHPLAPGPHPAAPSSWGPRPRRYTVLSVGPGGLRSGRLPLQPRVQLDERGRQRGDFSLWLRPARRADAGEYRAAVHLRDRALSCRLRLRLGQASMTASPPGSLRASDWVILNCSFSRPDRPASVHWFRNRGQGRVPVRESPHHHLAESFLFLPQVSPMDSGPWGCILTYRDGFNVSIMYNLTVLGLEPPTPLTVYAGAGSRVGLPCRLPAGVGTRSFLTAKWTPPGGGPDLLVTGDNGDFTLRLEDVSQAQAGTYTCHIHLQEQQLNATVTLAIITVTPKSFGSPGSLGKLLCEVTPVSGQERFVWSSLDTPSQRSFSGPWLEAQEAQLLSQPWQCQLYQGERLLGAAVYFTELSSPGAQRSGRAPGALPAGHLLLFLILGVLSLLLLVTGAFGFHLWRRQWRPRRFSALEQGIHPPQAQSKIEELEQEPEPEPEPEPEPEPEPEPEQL
Experimental: (§1) FIG. 2: Binding affinity of the selected antibodies for lymphocytes. The ELISA assays were performed with mAbs used at increasing concentrations (7.5 nM, 25 nM, 50 nM, 100 nM) on activated hPBMCs (black curves) or untreated hPBMCs (grey curves).
(§2) Plates were then centrifuged, cell pellets were washed with PBS and incubated with HRP-conjugated anti-human IgG goat polyclonal antibody for 1 hour at room temperature. Following additional washes in PBS 1×, TMB reagent was added for 10 min before quenching with an equal volume of 1N HCl. Absorbance at 450 nm was measured by the Envision plate reader (Perkin Elmer, Waltham, Mass., USA).

[2] = molecular target: T2, human LAG-3/Fc recombinant chimeric protein (R&D Systems) (human, UniProt P18627 23-450); test: ELISA on coated recombinant LAG-3/Fc, mAb at increasing concentrations (apparent Kd, legend paragraph 26)
T2 construct: Bought from R&D Systems; also called rhLAG-3; recombinant protein/Fc
T2 sequence (looked up): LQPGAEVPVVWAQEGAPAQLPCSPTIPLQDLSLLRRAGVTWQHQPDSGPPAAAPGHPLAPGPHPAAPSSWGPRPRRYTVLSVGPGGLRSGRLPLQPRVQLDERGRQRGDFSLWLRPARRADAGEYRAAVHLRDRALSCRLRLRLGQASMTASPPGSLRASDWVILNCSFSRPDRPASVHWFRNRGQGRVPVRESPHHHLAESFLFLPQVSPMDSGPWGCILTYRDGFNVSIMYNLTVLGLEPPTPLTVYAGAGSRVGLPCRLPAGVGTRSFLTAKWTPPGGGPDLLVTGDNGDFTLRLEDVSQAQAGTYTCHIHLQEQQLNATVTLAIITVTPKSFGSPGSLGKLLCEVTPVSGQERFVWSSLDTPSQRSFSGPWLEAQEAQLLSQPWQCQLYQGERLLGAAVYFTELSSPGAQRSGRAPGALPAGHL
Experimental: as §1
(§3) To confirm the binding specificity of the purified mAbs, ELISA assays were performed on chimeric proteins (coated at 5 μg/ml), tumor cells (PD-L1-positive breast cancer MDA-MB-231 cells or PD-L1-negative breast cancer MCF7), and untreated or activated hPBMCs. The ELISA assays on coated chimeric protein were performed by coating Nunc™ flat-bottom 96-well plates (Fisher Scientific, Thermo Fisher Scientific) with 5 μg/ml […], […] and rhLAG-3 recombinant proteins in a solution of 0.05 M NaHCO₃ for 72 hours at 37° C. […] After extensive washes with PBS, the plates were incubated with (HRP)-conjugated anti-human IgG (Fab′)2 goat monoclonal antibody (Abcam, Cambridge, UK) for 1 hour, washed again and incubated with TMB reagent for 10 min before quenching with an equal volume of 1N HCl.

[3] = molecular target: T3, human PD-L1/Fc recombinant chimeric protein (R&D Systems) (human, UniProt Q9NZQ7 19-239); test: ELISA on coated recombinant PD-L1/Fc, mAb at increasing concentrations (apparent Kd, legend paragraph 26) [continued]
T3 construct: Bought from R&D Systems; also called recombinant protein/Fc
Experimental: as §1, §3

[4] = molecular target: T4, human PD-L1 on cells (activated hPBMCs; MDA-MB-231 tumor cells) (human, UniProt Q9NZQ7 19-290); test: cell ELISA on activated hPBMCs (apparent Kd, legend paragraph 26) [continued]
T4 construct: whole, on cells; also called PD-L protein
Experimental: as §1, §2

[5] = molecular target: T4, human PD-L1 on cells (activated hPBMCs; …); test: cell ELISA on MDA-MB-231 tumor cells expressing PD-L1 (apparent Kd) [continued]
Experimental: as §2

[6] = molecular target: T5, human PD-1/Fc recombinant chimeric protein (R&D Systems) (human, UniProt Q15116 25-167); test: ELISA on coated recombinant PD-1/Fc, mAb at increasing concentrations (apparent Kd, legend paragraph 26) [continued]
T5 construct: Bought from R&D Systems; also called rhPD-1; recombinant protein/Fc
Experimental: as §1, §3

[7] = molecular target: T6, human PD-1 on activated hPBMCs (human, UniProt Q15116 25-288); test: cell ELISA on activated hPBMCs (apparent Kd, legend paragraph 26) [continued]
T6 construct: whole, on cells; also called cognate receptor expressed on hPBMCs
Experimental: as §1, §2

[8] = molecular target: T4, human PD-L1 on cells (activated hPBMCs; …); test: flow cytometry on hPBMCs activated with anti-CD3/CD28 beads, MFI against IgG concentration
Experimental: Human PBMCs isolated from healthy donors were activated with anti-CD3/CD28 beads to stimulate PD-L1 expression.
The human peripheral blood mononuclear cells (hPBMCs) isolated from healthy donors were thawed in RPMI 1640 medium (Gibco), supplemented with 2 mM L-glutamine, 10% (v/v) CTL wash supplement (CTL, Shaker Heights, Ohio, USA), 100 U/ml Benzonase (Merck Millipore, Burlington, Mass., United States). After centrifugation at 1200 rpm for 10 min, they were resuspended in complete RPMI medium supplemented with 10% (v/v) heat-inactivated fetal bovine serum (FBS, Sigma), 2 mM L-glutamine, 100 U/ml penicillin and 100 µg/ml streptomicin (Gibco), HEPES 10 mM (Gibco). After resting for 16 h at 37° C. in a humidified atmosphere with 5% CO2, hPBMCs were counted, resuspended at a concentration of 10\hat{ }6 viable cells/ml in complete RPMI medium (as above) and activated with Dynabeads Human T-Activator CD3/CD28 (Gibco), 25 μl beads/10\hat{ }6 viable cells. 24 h post activation, the cells were centrifuged and plated at 4×10\hat{ }5 cells/well in PBS in a 96 well plate with round bottom. After one wash in PBS, they were incubated with 50 μl LIVE/DEAD™ Fixable Violet Dead Cell Stain (Invitrogen) for 30 min at +4° C. and washed once again.

T4 sequence (Q9NZQ7 19-290): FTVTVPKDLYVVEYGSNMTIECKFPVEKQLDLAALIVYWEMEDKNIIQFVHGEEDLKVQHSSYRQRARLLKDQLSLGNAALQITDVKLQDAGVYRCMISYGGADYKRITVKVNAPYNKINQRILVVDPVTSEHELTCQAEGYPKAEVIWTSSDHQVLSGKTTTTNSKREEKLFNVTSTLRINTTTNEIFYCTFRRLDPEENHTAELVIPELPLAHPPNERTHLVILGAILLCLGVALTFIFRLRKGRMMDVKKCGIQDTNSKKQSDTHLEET
T6 sequence (Q15116 25-288): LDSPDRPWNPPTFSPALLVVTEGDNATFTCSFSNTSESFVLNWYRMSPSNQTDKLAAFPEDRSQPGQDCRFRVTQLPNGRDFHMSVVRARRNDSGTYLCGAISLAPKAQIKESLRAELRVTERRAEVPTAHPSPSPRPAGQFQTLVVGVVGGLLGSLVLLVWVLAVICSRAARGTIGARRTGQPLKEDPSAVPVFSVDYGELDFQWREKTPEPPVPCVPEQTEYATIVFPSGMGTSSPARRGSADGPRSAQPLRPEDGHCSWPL
T5 sequence (Q15116 25-167, change not shown): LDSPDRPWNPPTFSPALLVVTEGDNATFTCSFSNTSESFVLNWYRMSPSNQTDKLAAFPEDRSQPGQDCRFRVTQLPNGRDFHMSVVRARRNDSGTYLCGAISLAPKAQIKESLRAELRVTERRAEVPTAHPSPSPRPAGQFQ
T3 sequence (Q9NZQ7 19-239, change not shown): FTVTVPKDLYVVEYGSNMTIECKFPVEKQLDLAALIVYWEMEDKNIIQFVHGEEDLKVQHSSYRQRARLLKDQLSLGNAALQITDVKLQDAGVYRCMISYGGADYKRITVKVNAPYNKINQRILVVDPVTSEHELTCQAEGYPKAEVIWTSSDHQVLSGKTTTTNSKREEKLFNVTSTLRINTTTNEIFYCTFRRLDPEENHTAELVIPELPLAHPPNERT

B1: LAG-3_A (antibody, human IgG4, V domains shown)
VH: EVQLLESGGGLVQPGGSLRLSCAASGFTFSSYAMSWVRQAPGKGLEWVSAISGSGGSTYYADSVKGRFTISRDNSKDTLYLQMNSLRAEDTAVYYCARDGPLYDISAGFVPISYYLDYWGQGTTVTVSS
VL: AQPVLTQPPSASGTPGQRVTISCSGSFSNIGSNYVFWYQQLPGTAPKLLISGNNQRPSGVPDRFSGSKSGTSASLAISGLRSQDEADYYCATWDDSLRGWVFGGGTKLTVL
notes: also called mAb LAG-3_A
A Kd [1] of 6 nM and a Kd [2] of 38 nM were found for B1 in this work.

B2: PD-L1_B (antibody, V domains shown)
VH: QVQLVQSGAEVKKPGSSVEVSCKVSGNTVIGYAVSWVRQAPGQGPEWMGRLIPSVGLTNYAQKFQDRLTFTADTSTSTVTMALSSLTSEDTAMYYCARDVSPAVPVSQYWGQGTLVTVSS
VL: AQSVLTQPPSVSAAPGQKVIISCSGDSFNIGSHSVSWYKQLPGSAPKLLIYENNVRPSGIPDRFSGSKSGTSATLGITGLQTRDEADYYCGAWDSSLNGHWVFGGGTQLTVL
notes: also called mAb PD-L1_B
A Kd [3] of 0.46 nM, a Kd [4] of 0.1 nM and a Kd [5] of 0.74 nM were found for B2 in this work.

B3: PD-1_A (antibody, V domains shown)
VH: QVQLQESGPGVVKPSGTLSLTCAISGGSIGSGGSIRSTRWWSWVRQSPGKGLEWIGEIYHSGSTNYNPSLKSRVTISLDKSRNHFSLRLNSVTAADTAVYYCARQDYGDSGDWYFDLWGKGTLVTVSS
VL: AQAVLTQPSSVSGAPGQRVTISCTGSSSNIGAGYDVHWYQQLPGTAPKLLIYGNNNRPSGVPDRFSGSKSGTSASLAITGLQTEDEADYYCQSYDNSLSGEVFGGGTKVTVL
notes: also called mAb PD-1_A; anti-PD-1 antibody PD-1_A
A Kd [6] of 0.15 nM and a Kd [7] of 0.14 nM were found for B3 in this work.

B4: PD-1_B (antibody, V domains shown)
VH: QVQLVQSGAEVKKPGASVKVSCKASGYTFTSYGISWVRQAPGQGLEWMGWISAYNGNTNYAQKLQGRVTMTTDTSTSTAYMELRSLRSDDTAVYYCARDFGSGSYYDLDYWGQGTMVTVSS
VL: ANFMLTQPHSVSESPGKTVTISCTGSSGSIASNYVQWYQQRPGSAPTTVIYEDNQRPSGVPDRFSGSIDSSSNSASLTISGLKTEDEADYYCQSYDSNNHWVFGGGTKLTVL
notes: also called mAb PD-1_B
A Kd [6] of 0.29 nM and a Kd [7] of 0.6 nM were found for B4 in this work.

B5: PD-L1_E (antibody, V domains shown)
VH: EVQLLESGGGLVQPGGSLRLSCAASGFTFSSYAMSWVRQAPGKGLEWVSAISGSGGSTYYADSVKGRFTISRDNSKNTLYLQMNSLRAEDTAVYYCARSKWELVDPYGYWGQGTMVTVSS
VL: ANFMLTQPHSVSESPGKTITISCTRSSGSIAGNYVQWYQQRPGSAPIIVIYEDNQRPSGVPDRFSGSIDSSSNSASLTISRLKTEDEADYYCQSYEASNVVFGGGTKLTVL
notes: Tested as a mAb detected with anti-human IgG Fc
B5: binds [8].

B6: PD-L1_C (antibody, V domains shown)
VH: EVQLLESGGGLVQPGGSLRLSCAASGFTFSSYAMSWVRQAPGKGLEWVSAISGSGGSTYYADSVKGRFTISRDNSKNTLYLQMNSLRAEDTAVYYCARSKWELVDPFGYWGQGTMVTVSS
VL: B5 VL
notes: as for B5
With B6 the “EC50 (read off the curve)” value [8] was about 2 nM.

B7: LAG-3_C (antibody, human IgG4, V domains shown)
VH: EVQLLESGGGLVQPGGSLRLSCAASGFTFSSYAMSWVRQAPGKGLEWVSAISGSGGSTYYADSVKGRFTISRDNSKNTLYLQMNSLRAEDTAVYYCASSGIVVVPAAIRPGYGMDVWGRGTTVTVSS
VL: AQAVLTQPSSVSGAPGQRVTISCTGSSSNIGAGYDVHWYQQLPGTAPKLLIYGNNNRPSGVPDRFSGSKSGTSASLAITGLQPEDEADYYCQSYDFGLSRVFGGGTKLTVL
notes: also called mAb LAG-3_C
A Kd [1] of 2.6 nM and a Kd [2] of 52 nM were found for B7 in this work.

B8: LAG-3_D (antibody, V domains shown)
VH: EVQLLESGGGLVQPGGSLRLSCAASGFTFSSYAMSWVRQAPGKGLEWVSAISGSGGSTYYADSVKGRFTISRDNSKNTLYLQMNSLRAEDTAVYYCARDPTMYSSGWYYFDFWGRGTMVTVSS
VL: ALSYVLTQPPSVSEAPRQRVTISCSGSSSNIGNNAVNWYQQLPGKAPKLLIYYDDLLPSGVSDRFSGSKSGTSASLAISGLQSEDEADYYCATWDDSLNGQVFGTGTKLTVL
A Kd [1] of 19 nM and a Kd [2] of 24 nM were found for B8 in this work.
